Reference: patent US20150344570A1 (published 2015)

T1: FcγRIIb extracellular domain with C-terminal His tag (human, UniProt P31994 43-217)
T1 construct: extracellular domain; expressed in FreeStyle293 cells; analyte in Biacore; also called FcgRIIb; 2b
T1 sequence (looked up): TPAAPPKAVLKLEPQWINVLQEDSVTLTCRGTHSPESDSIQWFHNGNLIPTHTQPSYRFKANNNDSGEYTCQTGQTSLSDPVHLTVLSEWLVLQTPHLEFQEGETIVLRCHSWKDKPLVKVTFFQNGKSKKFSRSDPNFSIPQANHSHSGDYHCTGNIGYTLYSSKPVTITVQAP

B1: GpH7-A5/GpH7-B3 variant Y300_14T/GpL16-k0 (heterodimerized antibody, He Ab) (antibody, human IgG1, kappa)
heavy 1: not shown
heavy 2: not shown
light: DIVMTQSPLSLPVTPGEPASISCQASESLVHSNRNTYLHWYLQKPGQSPQLLIYKVSNRFSGVPDRFSGSGSGTDFTLKISRVEAEDVGVYYCSQNTHVPPTFGQGTKVEIERTVAAPSVFIFPPSDEQLKSGTASVVCLLNNFYPREAKVQWKVDNALQSGNSQESVTEQDSKDSTYSLSSTLTLSKADYEKHKVYACEVTHQGLSSPVTKSFNRGEC
notes: Anti-glypican-3 IgG1; alteration only in the GpH7-B3 (K439E) chain; other H chain is GpH7-A5 (D356K/H435R)
B2: GpH7-A5/GpH7-B3 variant Y300_19Q/GpL16-k0 (heterodimerized antibody, He Ab) (antibody, human IgG1, kappa)
heavy 1: not shown
heavy 2: not shown
light: B1 light
notes: as for B1
B3: GpH7-A5/GpH7-B3 variant Y300_20W/GpL16-k0 (heterodimerized antibody, He Ab) (antibody, human IgG1, kappa)
heavy 1: not shown
heavy 2: not shown
light: B1 light
notes: as for B1
B4: GpH7-A5/GpH7-B3 variant D265_01G/GpL16-k0 (antibody, human IgG1, kappa)
heavy 1: not shown
heavy 2: not shown
light: B1 light
notes: He Ab; IgG1, mutation in one H chain
B5: GpH7-A5/GpH7-B3 variant D265_02A/GpL16-k0 (antibody, human IgG1, kappa)
heavy 1: not shown
heavy 2: not shown
light: B1 light
notes: as for B4
B6: GpH7-A5/GpH7-B3 variant D265_03V/GpL16-k0 (antibody, human IgG1, kappa)
heavy 1: not shown
heavy 2: not shown
light: B1 light
notes: as for B4
B7: GpH7-A5/GpH7-B3 variant D265_04F/GpL16-k0 (antibody, human IgG1, kappa)
heavy 1: not shown
heavy 2: not shown
light: B1 light
notes: as for B4
B8: GpH7-A5/GpH7-B3 variant D265_06M/GpL16-k0 (antibody, human IgG1, kappa)
heavy 1: not shown
heavy 2: not shown
light: B1 light
notes: as for B4
B9: GpH7-A5/GpH7-B3 variant D265_07I/GpL16-k0 (antibody, human IgG1, kappa)
heavy 1: not shown
heavy 2: not shown
light: B1 light
notes: as for B4
B10: GpH7-A5/GpH7-B3 variant D265_08L/GpL16-k0 (antibody, human IgG1, kappa)
heavy 1: not shown
heavy 2: not shown
light: B1 light
notes: as for B4
B11: GpH7-A5/GpH7-B3 variant D265_10E/GpL16-k0 (antibody, human IgG1, kappa)
heavy 1: not shown
heavy 2: not shown
light: B1 light
notes: as for B4
B12: GpH7-A5/GpH7-B3 variant D265_11K/GpL16-k0 (antibody, human IgG1, kappa)
heavy 1: not shown
heavy 2: not shown
light: B1 light
notes: as for B4
B13: GpH7-A5/GpH7-B3 variant D265_12R/GpL16-k0 (antibody, human IgG1, kappa)
heavy 1: not shown
heavy 2: not shown
light: B1 light
notes: as for B4
B14: GpH7-A5/GpH7-B3 variant D265_13S/GpL16-k0 (antibody, human IgG1, kappa)
heavy 1: not shown
heavy 2: not shown
light: B1 light
notes: as for B4
B15: GpH7-B3 variant Y300_06M/GpL16-k0 (homodimerized antibody, Ho Ab) (antibody, human IgG1, kappa)
heavy: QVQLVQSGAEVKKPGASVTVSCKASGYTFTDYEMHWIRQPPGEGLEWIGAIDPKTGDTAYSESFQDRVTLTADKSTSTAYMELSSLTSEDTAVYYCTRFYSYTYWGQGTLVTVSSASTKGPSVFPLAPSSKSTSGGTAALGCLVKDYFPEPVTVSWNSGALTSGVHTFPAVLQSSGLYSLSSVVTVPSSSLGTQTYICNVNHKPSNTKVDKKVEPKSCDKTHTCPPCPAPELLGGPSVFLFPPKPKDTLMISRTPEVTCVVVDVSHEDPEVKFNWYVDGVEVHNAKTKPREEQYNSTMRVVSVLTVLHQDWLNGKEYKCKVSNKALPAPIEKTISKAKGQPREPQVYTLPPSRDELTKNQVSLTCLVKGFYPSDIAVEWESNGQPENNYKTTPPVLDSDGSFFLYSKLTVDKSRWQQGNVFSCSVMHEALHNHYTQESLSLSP
light: B1 light
notes: Anti-glypican-3 IgG1 (G1d with K439E); same alteration in both H chains
B16: GpH7-B3 variant Y300_08L/GpL16-k0 (homodimerized antibody, Ho Ab) (antibody, human IgG1, kappa)
heavy: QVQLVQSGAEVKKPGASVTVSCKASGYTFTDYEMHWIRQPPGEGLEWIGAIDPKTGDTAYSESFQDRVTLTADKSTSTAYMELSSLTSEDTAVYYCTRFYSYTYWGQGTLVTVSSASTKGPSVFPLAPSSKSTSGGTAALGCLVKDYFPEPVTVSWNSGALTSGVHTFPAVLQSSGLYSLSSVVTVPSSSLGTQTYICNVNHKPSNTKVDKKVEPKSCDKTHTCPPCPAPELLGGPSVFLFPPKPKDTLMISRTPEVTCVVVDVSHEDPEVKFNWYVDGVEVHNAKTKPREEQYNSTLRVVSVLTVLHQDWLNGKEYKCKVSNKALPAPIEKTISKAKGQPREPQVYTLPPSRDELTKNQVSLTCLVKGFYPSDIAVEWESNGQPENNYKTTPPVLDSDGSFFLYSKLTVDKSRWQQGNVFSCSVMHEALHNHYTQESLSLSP
light: B1 light
notes: as for B15
B17: GpH7-B3 variant Y300_09D/GpL16-k0 (homodimerized antibody, Ho Ab) (antibody, human IgG1, kappa)
heavy: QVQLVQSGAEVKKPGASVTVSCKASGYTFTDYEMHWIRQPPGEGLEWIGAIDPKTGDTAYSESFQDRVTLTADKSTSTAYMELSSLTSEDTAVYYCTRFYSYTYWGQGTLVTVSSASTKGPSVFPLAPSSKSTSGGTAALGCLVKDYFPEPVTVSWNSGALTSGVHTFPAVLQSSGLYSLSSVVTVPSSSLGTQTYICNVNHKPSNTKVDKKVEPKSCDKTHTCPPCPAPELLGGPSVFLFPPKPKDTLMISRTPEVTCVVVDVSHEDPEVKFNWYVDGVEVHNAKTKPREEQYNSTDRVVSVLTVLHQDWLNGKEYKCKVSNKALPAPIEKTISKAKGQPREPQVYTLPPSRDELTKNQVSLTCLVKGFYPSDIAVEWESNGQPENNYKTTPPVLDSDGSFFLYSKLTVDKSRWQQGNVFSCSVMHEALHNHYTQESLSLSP
light: B1 light
notes: as for B15
B18: GpH7-B3 variant Y300_10E/GpL16-k0 (homodimerized antibody, Ho Ab) (antibody, human IgG1, kappa)
heavy: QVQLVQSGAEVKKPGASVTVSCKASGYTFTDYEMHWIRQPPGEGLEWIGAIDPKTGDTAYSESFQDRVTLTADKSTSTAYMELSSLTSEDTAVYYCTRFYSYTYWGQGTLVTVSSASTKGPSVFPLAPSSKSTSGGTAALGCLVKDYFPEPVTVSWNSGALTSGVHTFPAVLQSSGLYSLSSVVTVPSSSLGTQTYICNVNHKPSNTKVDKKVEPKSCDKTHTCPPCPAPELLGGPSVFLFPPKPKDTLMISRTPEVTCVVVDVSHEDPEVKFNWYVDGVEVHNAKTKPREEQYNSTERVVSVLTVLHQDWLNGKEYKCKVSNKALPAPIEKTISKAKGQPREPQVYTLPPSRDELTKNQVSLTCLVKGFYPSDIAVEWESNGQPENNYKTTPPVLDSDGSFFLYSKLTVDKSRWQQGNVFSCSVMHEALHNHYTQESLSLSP
light: B1 light
notes: as for B15
B19: GpH7-B3 variant Y300_11K/GpL16-k0 (homodimerized antibody, Ho Ab) (antibody, human IgG1, kappa)
heavy: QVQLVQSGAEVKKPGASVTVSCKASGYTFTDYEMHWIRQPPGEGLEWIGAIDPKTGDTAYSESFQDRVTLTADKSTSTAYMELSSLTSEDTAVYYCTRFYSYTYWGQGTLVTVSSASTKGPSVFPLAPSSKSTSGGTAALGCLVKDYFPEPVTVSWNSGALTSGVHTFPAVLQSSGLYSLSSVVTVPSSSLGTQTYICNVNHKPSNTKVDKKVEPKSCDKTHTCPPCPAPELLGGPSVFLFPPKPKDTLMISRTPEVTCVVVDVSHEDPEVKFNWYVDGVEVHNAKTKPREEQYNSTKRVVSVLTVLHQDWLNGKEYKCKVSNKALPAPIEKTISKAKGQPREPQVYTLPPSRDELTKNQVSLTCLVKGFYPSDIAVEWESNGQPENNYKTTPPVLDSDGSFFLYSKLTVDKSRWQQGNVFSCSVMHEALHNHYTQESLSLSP
light: B1 light
notes: as for B15
B20: GpH7-B3 variant Y300_13S/GpL16-k0 (homodimerized antibody, Ho Ab) (antibody, human IgG1, kappa)
heavy: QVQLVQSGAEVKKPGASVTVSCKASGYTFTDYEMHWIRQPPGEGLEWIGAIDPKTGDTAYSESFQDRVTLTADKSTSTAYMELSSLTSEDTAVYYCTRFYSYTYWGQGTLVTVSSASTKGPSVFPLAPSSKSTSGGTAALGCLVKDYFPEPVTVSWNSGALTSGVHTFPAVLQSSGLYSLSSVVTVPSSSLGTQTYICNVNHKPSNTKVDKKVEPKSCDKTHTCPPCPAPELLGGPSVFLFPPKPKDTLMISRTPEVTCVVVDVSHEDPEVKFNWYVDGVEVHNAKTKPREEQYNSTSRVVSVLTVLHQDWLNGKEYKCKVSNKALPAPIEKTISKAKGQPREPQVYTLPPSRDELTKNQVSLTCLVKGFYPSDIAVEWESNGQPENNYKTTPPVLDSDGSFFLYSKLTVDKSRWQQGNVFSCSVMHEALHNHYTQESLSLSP
light: B1 light
notes: as for B15
B21: GpH7-B3 variant Y300_14T/GpL16-k0 (homodimerized antibody, Ho Ab) (antibody, human IgG1, kappa)
heavy: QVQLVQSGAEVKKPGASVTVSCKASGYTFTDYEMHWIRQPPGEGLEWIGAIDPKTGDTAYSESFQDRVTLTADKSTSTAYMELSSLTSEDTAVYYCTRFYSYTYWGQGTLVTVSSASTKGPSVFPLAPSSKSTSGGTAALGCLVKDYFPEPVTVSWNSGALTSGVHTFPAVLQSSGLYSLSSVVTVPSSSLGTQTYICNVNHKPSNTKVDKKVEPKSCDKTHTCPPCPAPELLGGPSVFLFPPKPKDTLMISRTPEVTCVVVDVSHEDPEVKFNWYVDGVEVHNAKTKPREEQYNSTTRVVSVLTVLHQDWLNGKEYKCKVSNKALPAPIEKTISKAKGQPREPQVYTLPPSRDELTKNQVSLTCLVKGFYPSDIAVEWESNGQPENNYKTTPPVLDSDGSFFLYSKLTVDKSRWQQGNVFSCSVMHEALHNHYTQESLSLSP
light: B1 light
notes: as for B15
B22: GpH7-B3 variant Y300_19Q/GpL16-k0 (homodimerized antibody, Ho Ab) (antibody, human IgG1, kappa)
heavy: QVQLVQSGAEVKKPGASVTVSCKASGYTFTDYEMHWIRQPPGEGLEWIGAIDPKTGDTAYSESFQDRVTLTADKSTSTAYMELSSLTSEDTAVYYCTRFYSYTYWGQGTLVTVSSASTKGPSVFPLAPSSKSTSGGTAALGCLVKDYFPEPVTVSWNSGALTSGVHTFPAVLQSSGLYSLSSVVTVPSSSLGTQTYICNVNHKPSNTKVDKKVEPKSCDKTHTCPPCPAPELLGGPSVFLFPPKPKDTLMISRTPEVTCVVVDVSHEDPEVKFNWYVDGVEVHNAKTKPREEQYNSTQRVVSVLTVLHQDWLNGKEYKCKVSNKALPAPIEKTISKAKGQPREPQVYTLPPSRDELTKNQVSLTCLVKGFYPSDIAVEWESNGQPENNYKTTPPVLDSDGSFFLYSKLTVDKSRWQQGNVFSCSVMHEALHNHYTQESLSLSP
light: B1 light
notes: as for B15
B23: GpH7-B3 variant Y300_20W/GpL16-k0 (homodimerized antibody, Ho Ab) (antibody, human IgG1, kappa)
heavy: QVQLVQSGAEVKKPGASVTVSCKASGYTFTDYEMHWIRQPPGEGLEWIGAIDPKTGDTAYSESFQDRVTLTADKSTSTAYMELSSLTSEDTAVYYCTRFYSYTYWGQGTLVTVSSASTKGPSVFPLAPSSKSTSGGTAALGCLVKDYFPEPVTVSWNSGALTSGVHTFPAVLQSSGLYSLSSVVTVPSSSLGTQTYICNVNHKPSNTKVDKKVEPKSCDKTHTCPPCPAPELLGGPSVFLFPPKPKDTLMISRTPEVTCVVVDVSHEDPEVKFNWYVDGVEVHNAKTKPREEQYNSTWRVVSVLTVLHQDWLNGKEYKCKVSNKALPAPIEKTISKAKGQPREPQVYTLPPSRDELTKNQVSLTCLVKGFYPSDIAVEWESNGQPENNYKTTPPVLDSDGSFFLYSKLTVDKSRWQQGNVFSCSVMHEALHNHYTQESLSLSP
light: B1 light
notes: as for B15

These binders were tested against T2, FcγRIa (human, UniProt P12314 16-292) (assay: SPR (Biacore), antibody captured on antigen-peptide chip, FcγRIa as analyte; binding activity relative to control GpH7-A5/GpH7-B3/GpL16-k0 (HeCon Ab) x100).
T2 construct: extracellular domain; Soluble extracellular domain with C-terminal His tag, expressed in FreeStyle293 cells; analyte in Biacore; also called FcgRI; CD64; not shown: His tag attached to the C terminus
Procedure: (§1) Analysis of interaction between objective antibody and the FcγR was carried out using Biacore T100 (GE Healthcare). HBS-EP+ (GE Healthcare) was used as the running buffer, and the measurement temperature was set to 25° C. Chips produced by immobilizing the antigen peptide by the amine coupling method to a Series S Sencor Chip CM5 (GE Healthcare), or alternatively, chips produced by allowing preliminarily biotinylated antigen peptides to interact with and immobilize onto a Series S Sensor Chip SA (certified) (GE Healthcare) were used. Antibodies of interest were captured onto an antigen peptide-immobilized chip, and allowed to interact to each FcγR diluted with running buffer. To regenerate and repeatedly use the chip, the antibodies captured on the chip were washed off by reacting 10 mM glycine-HCl, pH 1.5.

T2 sequence (P12314 16-292): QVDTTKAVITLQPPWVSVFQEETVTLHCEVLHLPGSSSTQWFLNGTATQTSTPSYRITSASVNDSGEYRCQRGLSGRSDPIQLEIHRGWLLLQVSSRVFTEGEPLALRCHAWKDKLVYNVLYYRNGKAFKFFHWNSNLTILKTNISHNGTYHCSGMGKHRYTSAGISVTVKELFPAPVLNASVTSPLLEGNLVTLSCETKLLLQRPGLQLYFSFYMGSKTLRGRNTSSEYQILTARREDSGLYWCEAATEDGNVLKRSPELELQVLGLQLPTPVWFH

Binder | He/Con_1a
B1 | 112 % of control (=100)
B2 | 112 % of control (=100)
B3 | 112 % of control (=100)

Each binder was assayed against T1, FcγRIIb extracellular domain with … (assay: SPR (Biacore), captured antibody, FcγR as analyte; relative binding).

Binder | He/Con_2b
B4 | 16.1 % of HeCon Ab (GpH7-A5/GpH7-B3/GpL16-k0 = 100)
B5 | 19.9 % of HeCon Ab (GpH7-A5/GpH7-B3/GpL16-k0 = 100)
B6 | 3.2 % of HeCon Ab (GpH7-A5/GpH7-B3/GpL16-k0 = 100)
B7 | 3.2 % of HeCon Ab (GpH7-A5/GpH7-B3/GpL16-k0 = 100)
B8 | 10 % of HeCon Ab (GpH7-A5/GpH7-B3/GpL16-k0 = 100)
B9 | 1.3 % of HeCon Ab (GpH7-A5/GpH7-B3/GpL16-k0 = 100)
B10 | 4.6 % of HeCon Ab (GpH7-A5/GpH7-B3/GpL16-k0 = 100)
B11 | 38.2 % of HeCon Ab (GpH7-A5/GpH7-B3/GpL16-k0 = 100)
B12 | 14.9 % of HeCon Ab (GpH7-A5/GpH7-B3/GpL16-k0 = 100)
B13 | 15 % of HeCon Ab (GpH7-A5/GpH7-B3/GpL16-k0 = 100)
B14 | 11.3 % of HeCon Ab (GpH7-A5/GpH7-B3/GpL16-k0 = 100)

Each binder was assayed against T3, FcγRIa extracellular domain with C-terminal His tag (human, UniProt P12314 16-292) in the same assay as above.
T3 construct: extracellular domain; expressed in FreeStyle293 cells; analyte in Biacore; also called FcgRI; 1a
T3 sequence (P12314 16-292): as above

Binder | He/Con_1a
B4 | 79.9 % of HeCon Ab (GpH7-A5/GpH7-B3/GpL16-k0 = 100)
B5 | 84.5 % of HeCon Ab (GpH7-A5/GpH7-B3/GpL16-k0 = 100)
B6 | 55.7 % of HeCon Ab (GpH7-A5/GpH7-B3/GpL16-k0 = 100)
B7 | 53 % of HeCon Ab (GpH7-A5/GpH7-B3/GpL16-k0 = 100)
B8 | 75.7 % of HeCon Ab (GpH7-A5/GpH7-B3/GpL16-k0 = 100)
B9 | 54.4 % of HeCon Ab (GpH7-A5/GpH7-B3/GpL16-k0 = 100)
B10 | 56.8 % of HeCon Ab (GpH7-A5/GpH7-B3/GpL16-k0 = 100)
B11 | 101 % of HeCon Ab (GpH7-A5/GpH7-B3/GpL16-k0 = 100)
B12 | 43.2 % of HeCon Ab (GpH7-A5/GpH7-B3/GpL16-k0 = 100)
B13 | 44.3 % of HeCon Ab (GpH7-A5/GpH7-B3/GpL16-k0 = 100)
B14 | 68.7 % of HeCon Ab (GpH7-A5/GpH7-B3/GpL16-k0 = 100)

Each binder was assayed against T3, FcγRIa extracellular domain with … (assay: SPR (Biacore); He/Con_1a divided by He/Con_2b (FcγRIIb as reference)).

Binder | He_1a/2b (Ia/IIb) [ratio]
B4 | 4.95
B5 | 4.25
B6 | 17.3
B7 | 16.8
B8 | 7.57
B9 | 41.2
B10 | 12.4
B11 | 2.66
B12 | 2.9
B13 | 2.96
B14 | 6.07

Each binder was assayed against T2, FcγRIa (assay: SPR (Biacore), antibody captured on antigen-peptide chip, FcγRIa as analyte; binding activity relative to control GpH7-B3/GpL16-k0 (HoCon Ab) x100).
Procedure: as §1

Binder | Ho/Con_1a
B15 | 111 % of control (=100)
B16 | 109 % of control (=100)
B17 | 111 % of control (=100)
B18 | 111 % of control (=100)
B19 | 101 % of control (=100)
B20 | 110 % of control (=100)
B21 | 110 % of control (=100)
B22 | 110 % of control (=100)
B23 | 110 % of control (=100)
